# Biological target: canine CD3 on canine T cells (canine PBMC) (canine, UniProt P27597 22-202)
# Assay: cell-based or functional assay
# Chain of canine CD3 on canine T cells (canine PBMC) (P27597 22-202 limits assumed, chain 1 of 3): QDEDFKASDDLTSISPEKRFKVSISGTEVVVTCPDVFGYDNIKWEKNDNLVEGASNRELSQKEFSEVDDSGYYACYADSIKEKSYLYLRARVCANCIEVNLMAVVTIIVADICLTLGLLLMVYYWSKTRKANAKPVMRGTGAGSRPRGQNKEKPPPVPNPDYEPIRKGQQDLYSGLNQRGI
# Chain of canine CD3 on canine T cells (canine PBMC) (chain, as listed by the source limits assumed, chain 2 of 3): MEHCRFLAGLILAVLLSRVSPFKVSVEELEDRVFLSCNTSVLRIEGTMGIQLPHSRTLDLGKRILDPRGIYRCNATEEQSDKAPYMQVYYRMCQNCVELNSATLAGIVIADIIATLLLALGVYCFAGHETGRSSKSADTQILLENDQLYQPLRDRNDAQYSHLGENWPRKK
# Chain of canine CD3 on canine T cells (canine PBMC) (chain, as listed by the source limits assumed, chain 3 of 3): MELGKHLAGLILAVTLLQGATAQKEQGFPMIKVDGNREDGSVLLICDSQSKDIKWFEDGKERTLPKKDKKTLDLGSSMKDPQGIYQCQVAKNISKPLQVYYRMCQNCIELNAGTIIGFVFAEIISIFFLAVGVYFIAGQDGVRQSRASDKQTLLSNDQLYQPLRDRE
Binder,"CD25 Activation, Day 6, IS","CD25 Activation, Day 6, PB","CD25 Activation, Day 9, IS","CD25 Activation, Day 9, PB","IFNy Concentration pg/ml, Day 6, IS","IFNy Concentration pg/ml, Day 9, IS","IFNy Concentration pg/ml, Day 9, PB","Ki67 Proliferation, Day 6, IS","Ki67 Proliferation, Day 6, PB","Ki67 Proliferation, Day 9, IS","Ki67 Proliferation, Day 9, PB"
"PMX168 (monospecific anti-canine CD3, canine IgG-B effector function deficient Fc) (antibody, V domains shown) VH: ELTLQESGPGLVKPSQTLSLTCVVSGGSVTRSYYWNWIRQRPGRGLEWMGYWTGTTNYNPAFQGRISITADTAKNQCSLQLSSMTTEDTAVYYCAREGGKLLGAFGHWGQGTLVTVSS VL: SYVLTQLPSKNVTLKQPAHITCGGDKIGSKSVHWYQQKLGQAPVLIIYYDSSRPTGIPERFSGANSGNTATLTISGALAEDEADYYCQVWDSSAKASVFGGGTHLTVL",7.17,13.4,8.87,6.52,61.1 pg/mL,301 pg/mL,2450 pg/mL,1.57,0.15,1.53,0.36
"PMX176 (monospecific anti-canine CD3, canine IgG-B effector function deficient Fc) (antibody, V domains shown) VH: EVQLVESGGDLVKPGGSLRLSCVASGFTFSSYHMSWVRQAPGKGLQWVAYINSAGSTTSYTDAVQGRFTISRDNAKNTLYLQMNSLRAEDTAVYYCASEWIFMPWGQGSLVTVSS VL: SYVLTQLPSKNVTLKQPAHITCGGDNIGSKSVHWYQQKLGQAPVLIIYYDSSRPTGIPERFSGANSGNTATLTISGALAEDEADYYCQVWDSSAKARVFGEGTQLTVL",10.3,9.61,12.3,10.1,30.3 pg/mL,278 pg/mL,594 pg/mL,0.93,1.45,2.2,0
"PMX167 (monospecific anti-canine CD3, canine IgG-B effector function deficient Fc) (antibody, V domains shown) VH: EVKLVESGGDLVKPGGSLRLSCMASGFTLNNYYMSWVRQAPGKGLQWVAYIKSGGSDTSYVDAVKGRFTISRDNAKNTLHLQMNSLRVEDTAVYYCATDGYIWAWGQGTLVTVSS VL: SYVLTQLPSKNVTLKQPAHITCGGDNIGSKSVHWYQQKLGQAPVLIIYYDNSRPTGIPERFSGAKSGNTATLTISGALAEDEADYYCQVWDSSSKAYVFGSGTQLTVL",7.09,4.93,11.6,12.8,63.5 pg/mL,802 pg/mL,1290 pg/mL,1.55,0,2.66,0.25
"PMX177 (monospecific anti-canine CD3, canine IgG-B effector function deficient Fc) (antibody, V domains shown) VH: EVTLQESGPGLVKPSQTLSLTCVVSGGSVTSSFYWNWIRQRPGRGLEWMGYWTGSTNYNPAFQGRISITADTAKNQFSLHLGSMTTDDTAMYYCAREEGSWGRVYFDYWGQGTLVTVSS VL: SYVLTQLPSKNVTLKQPAHITCGGDNIGSKSVHWYQQKLGQAPVLIIYYDSSRPTGIPERFSGANSGNTATLTISGALAEDEADYYCQVWDSSTKTWVFGEGTQLTVL",8.02,12.6,13.7,18.4,28.8 pg/mL,763 pg/mL,2210 pg/mL,1.41,1.37,3.19,0.47
"PMX170 (monospecific anti-canine CD3, canine IgG-B effector function deficient Fc) (antibody) heavy: EVQLVESGGDLVKPGGSLRLSCVASGFTFSSYHMSWVRQAPGKGLQWVAYSNSGGSRTSYADAVKGRFTISRDNAKNTLYLQMSSLRAEDTAVYYCASEGGGGRYGFKDYGMDYWGHGTSLFVSSASTTAPSVFPLAPSCGSTSGSTVALACLVSGYFPEPVTVSWNSGSLTSGVHTFPSVLQSSGLYSLSSMVTVPSSRWPSETFTCNVAHPASKTKVDKPVPKRENGRVPRPPDCPKCPAPESLGGPSVFIFPPKPKDTLLIARTPEVTCVVVDLGREDPEVQISWFVDGKQMQTAKTQPREEQFNGTYRVVSVLPIGHQDWLKGKQFTCKVNHIGLPSPIERTISKARGQAHQPSVYVLPPSREELSKNTVSLTCLIKDFFPPDIDVEWQSNGQQEPESKYRTTPPQLDEDGSYFLYSKLSVDKSRWQRGDTFICAVMHEALHNHYTQKSLSHSPGK VL: SYVLTQLPSKNVTLKQPAHITCGGDNIGSKSVHWYQQKLGQAPVLIIYYDSSRPTGIPERFSGANSGNTATLTISGALAEDEADYYCQVWDSSAKAWVFGEGTQLTVL",9.44,11.8,7.39,11.3,71.3 pg/mL,114 pg/mL,282 pg/mL,1.99,0.27,0.79,0.47
"PMX179 (monospecific anti-canine CD3, canine IgG-B effector function deficient Fc) (antibody, V domains shown) VH: ELALQESGPGLVRPSQTLSLTCVVSGGSVTRSYYWNWIRQRPGRGLEWMGYWTGTTIYNPAFQGRISITVDTAKNQFSLHLISMTTEDTAVYYCGREGGSSLGAIAYWGQGTRVTVSS VL: SYVLTQLPSKNVTLKQPAHITCGGDNIGSKSVHWYQQKLGQAPVLIIYYDSSRPTGIPERFSGANSGNTATLTISGALAEDEADYYCQVWDSSAKAAVFGGGTHLTVL",8.73,22,10.9,22.9,43.4 pg/mL,162 pg/mL,2750 pg/mL,1.27,0.48,2.06,0.31
"PMX171 (monospecific anti-canine CD3, canine IgG-B effector function deficient Fc) (antibody) heavy: EVQLVESGGDLVKPGGSLRLSCEASGFTFSSYHMSWVRQAPGKGLQWVAYINNGGSGTSYADAVKGRFTISRDNAKNTLYLQMNSLRAEDTAVYFCASEGGGKRYGYKDYGMDYWGHGTSLFVSSASTTAPSVFPLAPSCGSTSGSTVALACLVSGYFPEPVTVSWNSGSLTSGVHTFPSVLQSSGLYSLSSMVTVPSSRWPSETFTCNVAHPASKTKVDKPVPKRENGRVPRPPDCPKCPAPESLGGPSVFIFPPKPKDTLLIARTPEVTCVVVDLGREDPEVQISWFVDGKQMQTAKTQPREEQFNGTYRVVSVLPIGHQDWLKGKQFTCKVNHIGLPSPIERTISKARGQAHQPSVYVLPPSREELSKNTVSLTCLIKDFFPPDIDVEWQSNGQQEPESKYRTTPPQLDEDGSYFLYSKLSVDKSRWQRGDTFICAVMHEALHNHYTQKSLSHSPGK VL: SYVLTQLPSKNVTLKQPAHITCGGDNIGSKSVHWYQQKLGQAPVLIIYYDSSRPTGIPERFSGANSGNTATLTISGALAEDEADYYCQVWDSSAKAWVFGEGTQLTVL",11.9,13.7,10.4,6.22,106 pg/mL,146 pg/mL,277 pg/mL,0.98,0.57,1.91,0.52
"PMX174 (monospecific anti-canine CD3, canine IgG-B effector function deficient Fc) (antibody) heavy: EVQLVESGGDLVKAGVSLRLSCVASGFTFSNYHLNWVRQAPGKGPQWVASINSGGSSTYYADAVKGRFTISRDNAKNTLYLQMNSLRAEDTAVYYCASDHGSYRGMDYWGHGTSLFVSSASTTAPSVFPLAPSCGSTSGSTVALACLVSGYFPEPVTVSWNSGSLTSGVHTFPSVLQSSGLYSLSSMVTVPSSRWPSETFTCNVAHPASKTKVDKPVPKRENGRVPRPPDCPKCPAPESLGGPSVFIFPPKPKDTLLIARTPEVTCVVVDLGREDPEVQISWFVDGKQMQTAKTQPREEQFNGTYRVVSVLPIGHQDWLKGKQFTCKVNHIGLPSPIERTISKARGQAHQPSVYVLPPSREELSKNTVSLTCLIKDFFPPDIDVEWQSNGQQEPESKYRTTPPQLDEDGSYFLYSKLSVDKSRWQRGDTFICAVMHEALHNHYTQKSLSHSPGK VL: SYVLTQLPSKNVTLKQPAHITCGGDNIGSKSVHWYQQKLGQAPVLIIYYDSSRPTGIPERFSGANSGNTATLTISGALAEDEADYYCQVWDSSAKAVFGGGTHLTVL",7.37,8.61,8.21,8.48,17.4 pg/mL,627 pg/mL,591 pg/mL,0.95,0.089,1.03,0
"PMX175 (monospecific anti-canine CD3, canine IgG-B effector function deficient Fc) (antibody, V domains shown) VH: ELTLQESGPGLVKPSQTLSLTCVVSGGSVTSTYYWNWIRQRPGRGLEWMGYWTGTTNYNPAFQGRISITADTAKNQFSLQLSSMTTEDTAVYYCAREDLVTVGSGAFNYWGQGTLVTVSS VL: SYVLTQLPSKNVTLKQPAHITCGGDNIGSKSVHWYQQKLGQAPVLIIYYDSSRPTGIPERFSGANSGNTATLTISGALAEDEADYYCQVWDSSATWVFGEGTQLTVL",14.5,8.76,10,9.46,51 pg/mL,233 pg/mL,706 pg/mL,2.03,0.59,1,0.95
